Target: human vasopressin V2 receptor (human), P30518

B1: [Se-Se]-OT-OH (peptide)
chain: UYIQNUPLG
modifications: not checked
- cAMP production, EC50: 109 nM

— paper PMC5892705
